Test results from patent US20090081234A1 (published 2009).

Target: recombinant human TNFα (human, UniProt P01375 77-233)
Experiment: cell-based or functional assay

Chain of recombinant human TNFα (P01375 77-233 limits assumed): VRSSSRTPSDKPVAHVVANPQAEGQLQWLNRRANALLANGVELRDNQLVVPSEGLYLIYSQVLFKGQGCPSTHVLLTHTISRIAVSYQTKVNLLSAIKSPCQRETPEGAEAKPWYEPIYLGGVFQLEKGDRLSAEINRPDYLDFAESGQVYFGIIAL

B1: TNV196 (antibody, V domains shown)
VH: QVQLVESGGGVVQPGRSLRLSCAASGFTFSSYAMHWVRQAPGKGLEWVAFISYDGSNKKSADSVKGRFTVSRDNSKNTLFLQMNSLRAEDTAVFYCARDRGIGAGGNYYYYGMDVWGQGTTVTVSS
VL: EIVLTQSPATLSLSPGERATLSCRASQSVYSYLAWYQQKPGQAPRLLIYDASNRATGIPARFSGSGSGTDFTLTISSLEPEDFAVYYCQQRSNWPPFTFGPGTKVDIK
  neutralizing TNFα bioactivity: 4 fold
